Laboratory results published in publication PMC5548745, “Agonist-induced dimer dissociation as a macromolecular step in G protein-coupled receptor signaling” (Nature Communications, 2017).
“Also recorded” adds a separate entry of the source.

What was measured:
[1] = test system: ERK1/2 phosphorylation in HEK293 cells; test: P-ERK1/2 immunoblot, HEK293 cells expressing SNAP-FZD6 constructs; type: cell-based; conditions: HEK293; C59 5 µM overnight
Procedure: Fig. 6 Relationship between FZD6 dimerization and phosphorylation of ERK1/2. a Mouse lung epithelial (MLE-12) cells were stimulated with WNT-5A (300 ng ml^−1) for 0, 2.5, 5, 10, 20 min. Cell lysates were analyzed for P-ERK1/2 and β-actin by immunoblotting. Additional information in Supplementary Fig. 6. b Bar graph summarizes three independent experiments. Densitometry data were normalized to the unstimulated control. […] Additional information in Supplementary Fig. 6. SNAP-FZD6 wt- and SNAP-FZD6 dimer mutant-induced ERK1/2 phosphorylation in the absence e and presence f of the porcupine inhibitor C59 (5 µM, overnight) were probed by immunoblotting for the SNAP-tag, P-ERK1/2, total ERK1/2 and β-actin. g The bar graph summarizes densitometry data of P-ERK1/2 normalized to total ERK1/2 from 6 different experiments. P = 0.0005; F (2, 15) = 13.08. ***P < 0.001. Empty vector transfection was used as mock. h Increasing amounts of plasmid of either SNAP-FZD6 wt or SNAP-FZD6 dimer mutant in the presence of C59 show a dose-dependent increase in P-ERK1/2 only with the dimer mutant. Data from three independent experiments for the dimer mutant were fit to a linear least-squares model (slope = 0.40 ± 0.10; R ^2 = 0.5943) and this line is shown superimposed. […] This dissociation-dependent activation can be evoked by agonist (WNT^high) or mutation of the dimer interface (symbolized by red stars). WNT^low conditions can be achieved in the presence of C59, which reduces FZD6 wt signaling
MLE-12 or HEK293 cells (ATCC) were plated in a 24- or 48-well plate at a density of 100,000 or 50,000 cells/well, respectively. After 24 h, cells were transfected using Lipofectamine 2000 according to the manufacturer’s instructions. Cells were stimulated (24 h post-transfection) with 300 ng ml^−1 recombinant carrier-free WNT-5A (CF WNT-5A; R&D Systems). Stimulation was stopped by the addition of lysis buffer (1% NP-40, 150 mM NaCl, 50 mM Tris/HCl pH 8). Lysates were sonicated and analyzed by 7.5 or 10% Mini-PROTEAN TGX precast polyacrylamide gels (Bio-Rad) and transferred to PVDF membranes using the Trans-Blot Turbo system (Bio-Rad). After blocking with 5% milk or BSA in TBS-T, membranes were incubated with primary antibodies in blocking buffer: mouse anti-β-actin (1:30,000; Sigma #A5441), rabbit anti-FZD6 (1:1000; NovusBio #NBP1-00830), rabbit anti-Phospho-p44/42 MAPK (ERK1/2) (Thr202/Tyr204) (1:1000; Cell Signaling Technology #9101 L), rabbit anti-p44/42 MAPK (ERK1/2) (1:1000; Cell Signaling Technology #9102), rabbit anti-Phospho-C-RAF (Ser338) (1:1000; Cell Signaling Technology #56A6), rabbit anti-SNAP tag (1:1000, New England Biolabs #P9310S), and rabbit anti-HA (1:4000, abcam #ab9110) overnight at 4 °C. Proteins were detected with horseradish peroxidase-conjugated secondary antibodies (goat anti-rabbit and goat anti-mouse (Pierce)) and Clarity Western ECL Blotting Substrate (Bio-Rad). All uncropped immunoblots can be found in the Supplementary Information.

porcupine = conditions: cited from earlier work
FZD6–FZD6 dimer [2] = test: dcFRAP of V5-FZD6-mCherry/FZD6-GFP (FZD6 dimerization); type: cell-based, human
How it was run: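 Live cells co-expressing V5-FZD6-mCherry and FZD6-GFP, surface V5 tag crosslinked with biotin-anti-V5 plus avidin in BE buffer at RT. Membrane areas photobleached, recovery imaged (488/561 nm) over 100 s; mobile fraction from background/bleach-corrected, pre-bleach-normalized intensity at 85-101 s. Cells with <40% crosslink-induced mobility reduction excluded.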

FZD6–FZD6 dimer [3] = test: dynamic FCCS of V5-FZD6-mCherry/FZD6-GFP; type: cell-based, human; conditions: HEK293; representative cell; G cc normalized to green auto-correlation amplitude; prior to stimulation
Procedure: HEK293 cells were grown over-night in Lab-Tek eight-well chamber-glass bottom slides (Nunc, Thermo Scientific, Langensbold, Germany) coated with matrigel. Data were acquired in 10 s intervals. Collection intervals containing abnormal fluorescence peaks (presumably resulting from aggregates or ROIs where the overall fluorescence was decaying, putatively due to membrane movements) were discarded from the overall analysis. The total included measurements time ranged from 20 to 80 s per cell. Measurements were only undertaken on cells where the fluorescence was well localized to the cell surface membrane, as judged by visual inspection in the wide-field and confocal mode. Autofluorescence, as well as fluorescence from both GFP and mCherry in the intracellular region was negligible. The number of fluorescent receptors assessed in each experiment varied from 10–1000 receptors per µm^2 in each HEK293 cell.
Dynamic FCCS measurements of WNT-dependent dissociation and re-association of FZD (Fig. 5c–e) were performed on an FCS/FCCS-equipped Zeiss 780 confocal microscope (Zeiss, Jena, Germany). The instrument details were the same as those of the Confocor 3 described above, with the exception that 561 nm excitation was used for excitation of mCherry, that GFP emission was detected from 500 to 550 nm, and that mCherry emission was detected from 600 to 690 nm. Experiments on cells were performed as described above, with each measurement point consisting of 3–6 measurements of 10 s each. […]
Assuming that M is FZD6-GFP (green) and N is FZD6-mCherry (red) and that all FZD6 form dimers, then the probability of finding a green–red FZD6 dimer is pgr=2×M×N/(M+N)(M+N-1)≈2×M×N/M+N^2=(2cgg+cgr)(2crr+cgr)/2cgg+cgr+crr^2 , where c gg, c gr, and c rr are the corresponding concentrations of the only green FZD6 dimers, the red and green FZD6 dimers and the only red FZD6 dimers. […] From the experiments, we determine the concentrations for c gg, c gr and c rr and compare the concentrations c gr with the c′gr for each cell to get an estimation of how close the model is to experimental data: cgr/c′gr=2cgr×(cgg+cgr+crr)/((2cgg+cgr)(2crr+cgr)) Analysis of the dynamic FCCS measurements of WNT-dependent dissociation and re-association of FZD6: Auto-correlation and cross-correlation curves were analyzed as described above and the amplitudes G g(0)−1, G r(0)−1, and G cc(0)−1 from each of the more than 300 measurements of 10 s duration were estimated by fitting to theoretical models. […]
With the settings described above for detection of emission, the crosstalk from the GFP channel to the mCherry channel, defined as the intensity detected in the mCherry channel divided by the intensity detected in the GFP channel, I r/I g, for a cell expressing only FZD-GFP, was 0.051 or 5.1 %. […]

FZD6–FZD6 dimer [4] = test: ratiometric FRET of C-terminally tagged FZD6 constructs; type: cell-based, human

Molecule	effect of C59 on FZD6 wt-induced P-ERK1/2 [1]	effect on endogenous WNT secretion (porcupine)	mobile fraction of FZD6-GFP before CL (FZD6–FZD6 dimer [2]; HEK293, basal, without biotinylated anti-V5/avidin crosslinking, 85–101 s, mean ± s.e.m., N = 21 ROIs)	mobile fraction of FZD6-GFP after CL (FZD6–FZD6 dimer [2]; HEK293, with biotinylated anti-V5/avidin crosslinking, 85–101 s, mean ± s.e.m., N = 31 ROIs)	dimeric fraction (FZD6–FZD6 dimer [2]; extrapolated from varying expression ratios, mCherry to GFP 1:1)	red molecules also green prior to WNT-5A (FZD6–FZD6 dimer [3])	energy transfer between fluorophores (FRET) (FZD6–FZD6 dimer [4])
Cc1cc(-c2ccc(CC(=O)Nc3ccc(-c4cccnc4)cc3)cc2)ccn1 [C59, 2-[4-(2-Methylpyridin-4-yl)phenyl]-N-[4-(pyridin-3-yl)phenyl]acetamide]	reduced to basal	blocks secretion of WNT proteins; also recorded: abrogates endogenous WNT secretion					
FZD6-GFP: GFP-tagged human FZD6 receptor construct (protein, left off: V5 (on the crosslinked copy), N-terminal, kept | mCherry (on the crosslinked copy), C-terminal, kept | GFP (on the other, mobile copy), C-terminal, kept, GFP-tagged human FZD6 receptor construct) HSLFTCEPITVPRCMKMAYNMTFFPNLMGHYDQSIAAVEMEHFLPLANLECSPNIETFLCKAFVPTCIEQIHVVPPCRKLCEKVYSDCKKLIDTFGIRWPEELECDRLQYCDETVPVTFDPHTEFLGPQKKTEQVQRDIGFWCPRHLKTSGGQGYKFLGIDQCAPPCPNMYFKSDELEFAKSFIGTVSIFCLCATLFTFLTFLIDVRRFRYPERPIIYYSVCYSIVSLMYFIGFLLGDSTACNKADEKLELGDTVVLGSQNKACTVLFMLLYFFTMAGTVWWVILTITWFLAAGRKWSCEAIEQKAVWFHAVAWGTPGFLTVMLLAMNKVEGDNISGVCFVGLYDLDASRYFVLLPLCLCVFVGLSLLLAGIISLNHVRQVIQHDGRNQEKLKKFMIRIGVFSGLYLVPLVTLLGCYVYEQVNRITWEITWVSDHCRQYHIPCPYQAKAKARPELALFMIKYLMTLIVGISAVFWVGSKKTCTEWAGFFKRNRKRDPISESRRVLQESCEFFLKHNSKVKHKKKHYKPSSHKLKVISKSMGTSTGATANHGTSAVAITSHDYLGQETLTEIQTSPETSMREVKADGASTPRLREQDCGEPASPAASISRLSGEQVDGKGQAGSVSESARSEGRISPKSDITDTGLAQSNNLQVPSSSEPSSLKGSTSLLVHPVSGVRKEQGGGCHSDT			80.8 ± 2.0%	70.7 ± 2.4%	around 25%	11%	not able to detect energy transfer
